We go through five molecules from article PMC7070046, “Sjögren syndrome/scleroderma autoantigen 1 is a direct Tankyrase binding partner in cancer cells” (Communications Biology, 2020).

Data set [1] addresses T1, TNKS1 ARC subdomains 1–3 (ARC1–3, residues 178–645) (human, UniProt O95271 178-645).
T1 construct: human Tankyrase 1, ankyrin repeat clusters 1-3, residues 178-645; Cloned into pETM11 with NcoI and XhoI; also called TNKS1 ARC1–3
T1 sequence (looked up): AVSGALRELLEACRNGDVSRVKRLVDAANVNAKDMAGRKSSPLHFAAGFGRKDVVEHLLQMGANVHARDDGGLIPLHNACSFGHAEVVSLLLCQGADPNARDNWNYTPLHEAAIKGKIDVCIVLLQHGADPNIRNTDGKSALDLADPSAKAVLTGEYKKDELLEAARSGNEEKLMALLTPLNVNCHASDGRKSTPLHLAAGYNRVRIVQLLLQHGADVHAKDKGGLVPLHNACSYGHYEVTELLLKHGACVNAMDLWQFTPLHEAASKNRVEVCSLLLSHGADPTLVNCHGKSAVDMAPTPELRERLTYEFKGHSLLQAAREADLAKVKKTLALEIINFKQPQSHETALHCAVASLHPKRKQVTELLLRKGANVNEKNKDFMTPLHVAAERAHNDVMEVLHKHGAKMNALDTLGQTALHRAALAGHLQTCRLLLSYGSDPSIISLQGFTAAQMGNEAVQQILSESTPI
Description: fluorescence polarisation; 50 nM 5-FAM-Ahx peptide with varied ARC1–3 protein; 25 mM HEPES pH 8, 150 mM NaCl, 1 mM TCEP, 5% glycerol, 0.05% CHAPS; room temperature, 60 min; one-site total binding model. Particulars: both partners purified. (Fluorescence polarisation rises when a labelled molecule tumbles more slowly, as on binding a larger partner.)

For data set [2], the target named is T2, TNKS1 ARC subdomains 1–3 (ARC1–3, residues 178–645) (human, UniProt O95271 178-645).
T2 chain: T1 sequence (looked up)
Description: FP.

Data set [3] deals with the molecule itself. Description: SEC; HiLoad Superdex S75 16/600; 20 mM HEPES pH 7.4, 200 mM NaCl, 5% glycerol, 0.1 mM TCEP; elution compared with standard proteins (estimated native MW 24.6 kDa, predicted 12.5 kDa).

Where no end group is shown, it is not given here.

B1: Axin1 positive control peptide (EDAPRPPVPGEEG) (peptide)
peptide: EDAPRPPVPGEEG
modifications: not fully specified (N-terminus); also: 5-FAM-Ahx-conjugated
notes: source: synthetic peptide (bought: GenScript)
On to B1, for which the binding result in data set [1] is “binds”. The affinity in data set [2], expressed as Kd, was 460 nM.

B2: SSSCA1-H2 peptide (TSLETSIQLCGLIRACAEALRSLQQL) (peptide)
peptide: TSLETSIQLCGLIRACAEALRSLQQL
modifications: cysteine pairing not given here; also: 5-FAM-Ahx conjugate, position not given here
notes: human SSSCA1, helix H2 region; source: synthetic peptide (bought: GenScript)
As to B2, in data set [1], the binding result is “binds”.

B3: SSSCA1-H2 peptide (TSLETSIQLCGLIRACAEALRSLQQL) (peptide)
peptide: TSLETSIQLCGLIRACAEALRSLQQL
modifications: not fully specified (N-terminus); cysteine pairing not given here; also: 5-FAM-Ahx-conjugated
Molecule B3 showed a Kd in data set [2] of 60 nM.

B4: SSSCA1-H1 peptide (DVMACTQTALLQKLTWASAELGSS) (peptide)
peptide: DVMACTQTALLQKLTWASAELGSS
modifications: not fully specified (N-terminus); also: 5-FAM-Ahx-conjugated
notes: human SSSCA1, helix H1 region; source: synthetic peptide (bought: GenScript)
Consider B4, for which, in data set [1], the binding result was “binds”. This molecule showed a Kd in data set [2] of 460 nM.

B5: SSSCA1 N-terminal Auto_anti-p27 domain (M1-S111) (domain or fragment, human, UniProt O60232 1-111, looked up)
chain: MALNGAEVDDFSWEPPTEAETKVLQARRERQDRISRLMGDYLLRGYRMLGETCADCGTILLQDKQRKIYCVACQELDSDVDKDNPALNAQAALSQAREHQLASASELPLGS
notes: Residues 1-12 and 78-111 are not modelled in the crystal structure; also called N-terminal SSSCA1; hSSSCA1; not shown: His6, N-terminal, cleaved
Take B5: the “stoichiometry N” value in data set [3] is 2.

A word on the Kd: it is the equilibrium constant for the complex coming apart. Higher therefore signals weaker binding. A word on the stoichiometry N: it is the number of molecules, sites or subunits per partner or assembly.
